Reference: patent US20050287132A1, “Biliverdin reductase fragments and variants, and methods of using biliverdin reductase and such fragments and variants” (University of Rochester, priority 1999, published 2005)

Key:
MBP = conditions: ^32P incorporation
Procedure: Kinase reactions were carried out based on the assay as described by Roskoski (Roskoski, Methods Enzymol. 99:3-6 (1983), which is hereby incorporated by reference) in a 50 μl volume in a reaction buffer consisting of 20 mM Tris HCl (pH 7.4) containing 10 mM MgCl2, 50 mM unlabeled ATP, 5 μCi [γ^32 P]-ATP and 1 mg/ml substrate. Substrates used were prepared as 10 mg/ml stock in 0.2 M Tris-HCl (pH 7.4) and stored at -20° C. The substrates utilized were MBP and histone III-S (Sigma) and E. coli expressed purified preparations of full length rat HO-1 and HO-2 (McCoubrey et al., J. Biol. Chem. 272:12568-12574 (1997), which is hereby incorporated by reference). The substrate/reaction buffer was incubated at 30° C. for 4 min prior to the addition of 5 μl of enzyme source (2 mg/ml BVR, 0.5 μg/ml PKC) or enzyme vehicle (GST-PBS containing 10% glycerol). Samples were mixed by aspiration and were then incubated for 8-15 min at 30° C. An aliquot (40 μl) from the reaction mixture was spotted onto a P81 (Whatman) filter, which was immediately immersed in 75 mM phosphoric acid for ≧5 min. Filters were washed 5× for 5 min each in 75 mM phosphoric acid and then 1× for 5 min with acetone before being air dried and counted by liquid scintillation counting in 10 ml ScintiVerse BD (Fisher). […] Activity was determined as ^32P counts incorporated into the acceptor protein per minute. […]

HO-1 = test: BVR kinase activity, 32P incorporation into exogenous substrate; assay type: biochemical, rat
Procedure: (§1) Incubation time was 8 min at 30° C.

HO-2 = test: as above; assay type: biochemical, rat
Procedure: as §1

PKC = test: Effect of BVR and peptides on PKC activity (MBP substrate, kinetic analysis); assay type: biochemical
Procedure: FIGS. 11A-C are graphs depicting the role of BVR in increasing protein kinase C activity. FIG. 11A depicts the dose-dependence of PKC activity in the presence of BVR or PKC inhibitor peptide (“PKCI”) in an assay system containing 0.5 μg/ml PKC, 50 μM unlabeled ATP, 5 μCi[^32γP]-ATP and 1 mg/ml MBP and carried out as described infra. FIGS. 11B-C are the kinetic analyses of PKC activity carried out with respect to MBP (FIG. 11B) and with respect to ATP (FIG. 11C) in the presence or absence of 50 μM BVR.
FIGS. 12A-C are graphs illustrating the effect of various rBVR fragments on PKC activity. Protein kinase C was incubated at 30° C. with buffer or with the indicated peptides (50 μM) for 15 min prior to addition to a kinase assay using MBP as substrate. FIG. 12A depicts the relative activity for each sample normalizing to that of the PKC and buffer control value. FIGS. 12B-C are the kinetic analyses of PKC with respect to substrate MBP (FIG. 12B) and ATP (FIG. 12C) in the presence or absence of BVR peptide fragments (50 μM). BVR1 peptide corresponds to SEQ. ID. No. 34 and BVR2 peptide corresponds to SEQ. ID. No. 19.
as §1

biliverdin reductase [1] = target: T1, biliverdin reductase (Rattus norvegicus, UniProt P46844); test: Western blot analysis of phosphorylation of purified rat liver BVR; assay type: biochemical; conditions: individual anti-phosphotyrosine, -serine, -threonine antibodies
T1 sequence (P46844 3-295): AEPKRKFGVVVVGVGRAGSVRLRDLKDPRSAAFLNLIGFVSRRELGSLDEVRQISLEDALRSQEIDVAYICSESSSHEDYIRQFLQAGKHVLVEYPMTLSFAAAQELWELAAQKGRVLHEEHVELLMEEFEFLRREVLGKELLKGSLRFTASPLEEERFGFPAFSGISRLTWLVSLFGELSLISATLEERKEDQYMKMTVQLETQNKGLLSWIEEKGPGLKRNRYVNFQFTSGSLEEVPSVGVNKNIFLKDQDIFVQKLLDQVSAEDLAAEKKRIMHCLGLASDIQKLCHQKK
Procedure: 2D-IEF was performed essentially as detailed previously (Huang et al., J. Biol. Chem. 264:7844-7849 (1989), which is hereby incorporated by reference). The first dimension separation of 3.5 μg of the reductase was carried out by isoelectric focusing (Righetti et al., J Chromatogr. 98:271-321 (1974), which is hereby incorporated by reference) using ampholytes with a 4-6.5 pH range. Electrofocusing was carried out for 17 h at 400 volts then for an additional hour at 800 volts. After focusing, the second dimension separation was carried out using 12.5% SDS polyacrylamide gel. […] The secondary antibody was goat anti-rabbit horseradish peroxidase (Zymed) at a 1:1000 dilution. Detection was carried out using the ECL reagent kit (NEN) according to the manufacturer's instructions. Phosphorylation molecular weight markers were used (Zymed). Soybean trypsin inhibitor (pI 4.55), β-lactoglobin A (pI 5.13), bovine carbonic anhydrase (pI 5.85), and human carbonic anhydrase B (pI 6.57) were used as IEF standards. Immunoblotting was performed by the method of Towbin et al, Proc. Nat. Acad. Sci. USA 76:4350-4354 (1979), which is hereby incorporated by reference. Primary and secondary antibody treatments and staining for peroxidase with 4-chloro-1 -naphthol were performed as described previously (Huang et al., J. Biol. Chem. 264:7844-7849 (1989), which is hereby incorporated by reference).

histone III-S = test: BVR kinase activity, 32P incorporation into exogenous substrate; assay type: biochemical
Procedure: as §1

[2] = Reductase activity of BVR purified from rat liver; assay type: biochemical; conditions: purified to homogeneity
Procedure: BVR was purified from rat liver to homogeneity (3,000 nmol bilirubin/min/mg protein) as described before (O'Carra et al., J. Biochem. 125:110P (1971), which is hereby incorporated by reference), with modifications (Huang et al., J. Biol. Chem. 264:7844-7849 (1989), which is hereby incorporated by reference). Activity was determined at pH 8.7 with NADPH in Tris-HCl with […] in potassium phosphate buffer. The substrate concentration was 5 μM. The rate of activity was measured by the increase in 450 nm absorbance at 25° C. The purified reductase, which was judged to be homogenous by SDS-PAGE, stained with Coomasie Brilliant Blue (Sigma), was used for preparation of polyclonal antibody in New Zealand rabbits (O'Carra et al., J. Biochem. 125:110P (1971), which is hereby incorporated by reference). Protein concentration was determined by Bradford's method (Bradford, Anal. Biochem. 72:248-254 (1976), which is hereby incorporated by reference).

biliverdin reductase [3] = target: T1, biliverdin reductase; test: Autophosphorylation of biliverdin reductase, in blot method with [γ^32P]-ATP; assay type: biochemical; conditions: PVDF bound, denatured/renatured
Description: The ability of the reductase to phosphorylate itself was examined using the in blot method of Ferrell and Martin (Ferrell et al., Methods Enzymol. 200:430-435 (1991), which is hereby incorporated by reference). Purified wild type or mutant proteins were used.
The ability of the reductase to phosphorylate itself was examined using the in blot method of Ferrell et al., Methods Enzymol. 200:430-435 (1991), which is hereby incorporated by reference. Following electrophoresis on 12.5% SDS-PAGE plus thioglycolate (0.002%), the protein was transferred to PVDF membrane (Millipore). The blot was denatured for I h at room temperature in 7 M guanidine-HCl (pH 8.3) containing 50 mM Tris-base, 50 mM dithiothreitol and 2 mM EDTA and the bound protein was allowed to renature overnight at 4° C. then incubated at room temperature for 4 h in freshly prepared labeling mix containing 10 μCi/ml [γ^32P]-ATP. The membrane first with 30 mM Tris-HCl (pH 7.4) then for 10 min each with 250 ml of the following: with 30 mM Tris-HCl (pH 7.4) twice; with the same buffer containing 0.5% (v/v) NP-40 once; with the Tris buffer twice; with 1 M KOH once; with the Tris buffer, twice . The membrane was blotted, dried, wrapped in plastic wrap, and exposed for autoradiography.

[4] = system: PKC (a mixture containing equal amounts of isozymes α, β and γ); test: Overlay assay for PKC binding by rat BVR; conditions: 2 μg rat liver BVR, 500 ng/ml PKC
Procedure: The physical interaction of BVR with PKC was assessed using an overlay assay based on that described by Wolf and Sahyoun (J. Biol. Chem. 261:13327-13331 (1986), which is hereby incorporated by reference) with known modifications (Chapline et al., J. Biol. Chem. 268:6858-6861 (1993), which is hereby incorporated by reference). Purified rat liver BVR (2 μg) was subjected to SDS-PAGE and transferred to nitrocellulose membrane. The membrane was blocked, washed, and then overlaid with a solution containing 500 ng/ml of PKC (a mixture containing equal amounts of isozymes α, β and γ) (Promega) in TBS containing 10 mg/ml BSA, 20 μg/ml phosphatidylserine, 1 mM EGTA, 1.2 mM CaCl2, 10 μg/ml leupeptin and 10 μg/ml aprotinin. After incubation for 1 h at room temperature, the blot was extensively washed with the PBS containing the same supplements as the overlay solution, but lacking the kinase mixture. The protein on the membrane was fixed by incubation in 0.5% formaldehyde in PBS and then reactive aldehyde groups were blocked by incubation in 2% glycine in TBS for 20 min at room temperature. The membrane was then washed 3 times with TBS and was cut in two, one half was subjected to Western blot analysis using a 1:1000 dilution of anti-PKC for 2 h at room temperature as the primary antibody, while the second half was probed with rabbit anti-rat BVR as detailed above for Western blotting. […]

[5] = in the presence of 50 μM BVR or peptide

B1: BVR: rat biliverdin reductase, SEQ. ID. No. 4, purified from rat liver (Example 3) (protein, listed as Rattus norvegicus)
chain: MDAEPKRKFGVVVVGVGRAGSVRLRDLKDPRSAAFLNLIGFVSRRELGSLDEVRQISLEDALRSQEIDVAYICSESSSHEDYIRQFLQAGKHVLVEYPMTLSFAAAQELWELAAQKGRVLHEEHVELLMEEFEFLRREVLGKELLKGSLRFTASPLEEERFGFPAFSGISRLTWLVSLFGELSLISATLEERKEDQYMKMTVQLETQNKGLLSWIEEKGPGLKRNRYVNFQFTSGSLEEVPSVGVNKNIFLKDQDIFVQKLLDQVSAEDLAAEKKRIMHCLGLASDIQKLCHQKK
MBP
  phosphate transferred by BVR to MBP: ~4,000 cpm/min
HO-1
  HO-1 as substrate for BVR phosphotransferase activity: not substrates
HO-2
  HO-2 as substrate for BVR phosphotransferase activity: not substrates
PKC; BVR 50 μM
  effect on Km of the PKC reaction with respect to ATP: negligible
PKC; PKC preincubated 15 min at 30° C., MBP substrate
  dose dependence of PKC activity (^32P into MBP): increased in a dose-dependent manner
PKC; [5]
  Vmax of the PKC reaction with respect to ATP: 2.9 pmol/min
  Vmax of the PKC reaction with respect to MBP: 4.9 pmol/min
PKC; upon addition of BVR (50 μM), MBP
  substrate Km of the PKC reaction: 0.16 mg/mL
Biliverdin reductase [1]
  phosphoamino acids present: esterified on tyrosine (panel b), serine (panel c), and threonine (panel d) residues
Histone III-S
  phosphate transferred by BVR to histone III-S: ~1,000 cpm/min
[2]
  specific activity of purified rat liver BVR: 3,000 nmol bilirubin/min/mg protein
Biliverdin reductase [3]
  autophosphorylation: able to phosphorylate itself
[4]
  PKC binding (overlay, anti-PKC Western): PKC-interactive protein
